Values of other authors as cited in paper PMC10696404.
“And” between values parts separate entries of the source, which are not always exact repeats. Equal entries are not always repeated. Blank lines part the entries; values can stand above or below the substance they belong to.

How the values were obtained:
NRP1 (Homo sapiens) = NRP1 (Homo sapiens) (UniProt O14786); assay: SPR
CD146 ECD (Homo sapiens) = CD146 ECD (Homo sapiens) (UniProt P43121); assay: bio-layer interferometry
JAG1 (Homo sapiens) = JAG1 (Homo sapiens) (UniProt P78504); assay: SPR
Sequence of JAG1 (Homo sapiens) (P78504 34-1218): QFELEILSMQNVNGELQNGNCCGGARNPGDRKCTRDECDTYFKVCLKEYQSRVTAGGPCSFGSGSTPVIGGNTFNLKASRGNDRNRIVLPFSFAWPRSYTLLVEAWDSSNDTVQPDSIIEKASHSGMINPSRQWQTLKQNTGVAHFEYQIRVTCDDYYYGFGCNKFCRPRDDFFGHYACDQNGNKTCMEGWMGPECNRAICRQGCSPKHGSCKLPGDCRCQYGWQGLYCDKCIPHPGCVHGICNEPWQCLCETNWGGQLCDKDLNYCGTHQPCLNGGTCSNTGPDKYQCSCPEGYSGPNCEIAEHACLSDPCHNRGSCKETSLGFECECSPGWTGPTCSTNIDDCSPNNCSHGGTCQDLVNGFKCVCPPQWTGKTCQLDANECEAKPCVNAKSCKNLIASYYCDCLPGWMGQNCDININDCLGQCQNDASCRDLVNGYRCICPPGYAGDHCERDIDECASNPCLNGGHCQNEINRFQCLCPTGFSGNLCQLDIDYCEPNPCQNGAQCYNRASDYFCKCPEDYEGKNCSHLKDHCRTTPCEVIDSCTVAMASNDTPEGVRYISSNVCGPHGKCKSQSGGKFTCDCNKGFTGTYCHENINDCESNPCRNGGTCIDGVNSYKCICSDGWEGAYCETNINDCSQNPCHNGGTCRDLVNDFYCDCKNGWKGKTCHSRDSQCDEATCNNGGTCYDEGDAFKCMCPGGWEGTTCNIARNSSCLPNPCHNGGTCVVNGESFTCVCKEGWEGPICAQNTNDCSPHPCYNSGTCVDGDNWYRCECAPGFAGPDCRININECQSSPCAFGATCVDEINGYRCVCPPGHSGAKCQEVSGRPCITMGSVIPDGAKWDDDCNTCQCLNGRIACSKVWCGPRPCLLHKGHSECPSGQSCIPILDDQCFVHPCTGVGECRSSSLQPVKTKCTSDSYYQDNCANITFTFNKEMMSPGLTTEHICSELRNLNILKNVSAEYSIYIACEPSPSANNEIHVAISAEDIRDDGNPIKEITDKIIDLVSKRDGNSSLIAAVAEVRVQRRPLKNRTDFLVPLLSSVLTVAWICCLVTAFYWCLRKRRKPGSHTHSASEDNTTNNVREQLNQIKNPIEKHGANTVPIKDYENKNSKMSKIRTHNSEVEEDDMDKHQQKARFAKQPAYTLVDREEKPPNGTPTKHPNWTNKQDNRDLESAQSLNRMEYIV

CD13 (Homo sapiens) = CD13 (Homo sapiens) (UniProt P15144); assay: SPR
DLL4 (Homo sapiens) = DLL4 (Homo sapiens) (UniProt Q9NR61); assay: SPR
Sequence of DLL4 (Homo sapiens) (Q9NR61 27-685): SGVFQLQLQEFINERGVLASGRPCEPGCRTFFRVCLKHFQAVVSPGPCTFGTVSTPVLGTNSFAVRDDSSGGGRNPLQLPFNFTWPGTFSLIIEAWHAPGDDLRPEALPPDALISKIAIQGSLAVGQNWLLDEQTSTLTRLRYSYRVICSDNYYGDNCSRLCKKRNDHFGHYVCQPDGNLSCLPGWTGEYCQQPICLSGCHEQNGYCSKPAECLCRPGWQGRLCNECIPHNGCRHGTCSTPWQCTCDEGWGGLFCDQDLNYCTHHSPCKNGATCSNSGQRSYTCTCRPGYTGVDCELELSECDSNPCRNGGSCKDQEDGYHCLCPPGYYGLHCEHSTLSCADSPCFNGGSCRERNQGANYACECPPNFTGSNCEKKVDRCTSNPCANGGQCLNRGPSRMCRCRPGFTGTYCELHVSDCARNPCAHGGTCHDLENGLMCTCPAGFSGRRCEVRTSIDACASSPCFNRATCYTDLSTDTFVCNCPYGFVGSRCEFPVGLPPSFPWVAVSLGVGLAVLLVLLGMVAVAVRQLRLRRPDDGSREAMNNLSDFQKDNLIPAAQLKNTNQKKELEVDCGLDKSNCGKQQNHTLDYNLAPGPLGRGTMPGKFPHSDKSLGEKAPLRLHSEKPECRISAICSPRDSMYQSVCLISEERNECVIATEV

CEA (Homo sapiens) = CEA (Homo sapiens) (UniProt P06731); assay: SPR
Sequence of CEA (Homo sapiens) (P06731 35-676): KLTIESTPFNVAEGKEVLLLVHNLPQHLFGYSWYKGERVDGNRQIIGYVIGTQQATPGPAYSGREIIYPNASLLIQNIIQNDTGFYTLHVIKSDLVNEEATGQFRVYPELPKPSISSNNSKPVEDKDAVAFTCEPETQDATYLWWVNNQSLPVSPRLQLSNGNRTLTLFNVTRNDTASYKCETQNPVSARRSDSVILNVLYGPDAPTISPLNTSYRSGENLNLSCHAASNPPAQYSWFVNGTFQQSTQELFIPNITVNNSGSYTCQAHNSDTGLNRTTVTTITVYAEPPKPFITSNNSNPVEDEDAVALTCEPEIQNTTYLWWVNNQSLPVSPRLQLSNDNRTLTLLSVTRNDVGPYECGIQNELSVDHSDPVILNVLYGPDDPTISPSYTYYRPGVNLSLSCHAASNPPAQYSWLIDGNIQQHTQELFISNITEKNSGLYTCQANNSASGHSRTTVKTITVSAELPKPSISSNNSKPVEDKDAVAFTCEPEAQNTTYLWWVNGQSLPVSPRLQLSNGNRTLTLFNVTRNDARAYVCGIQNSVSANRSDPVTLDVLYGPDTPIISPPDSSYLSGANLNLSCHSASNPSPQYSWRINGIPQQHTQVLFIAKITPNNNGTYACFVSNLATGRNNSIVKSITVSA

ALCAM (Homo sapiens) = ALCAM (Homo sapiens) (UniProt Q13740); assay: SPR
Sequence of ALCAM (Homo sapiens) (Q13740 28-583): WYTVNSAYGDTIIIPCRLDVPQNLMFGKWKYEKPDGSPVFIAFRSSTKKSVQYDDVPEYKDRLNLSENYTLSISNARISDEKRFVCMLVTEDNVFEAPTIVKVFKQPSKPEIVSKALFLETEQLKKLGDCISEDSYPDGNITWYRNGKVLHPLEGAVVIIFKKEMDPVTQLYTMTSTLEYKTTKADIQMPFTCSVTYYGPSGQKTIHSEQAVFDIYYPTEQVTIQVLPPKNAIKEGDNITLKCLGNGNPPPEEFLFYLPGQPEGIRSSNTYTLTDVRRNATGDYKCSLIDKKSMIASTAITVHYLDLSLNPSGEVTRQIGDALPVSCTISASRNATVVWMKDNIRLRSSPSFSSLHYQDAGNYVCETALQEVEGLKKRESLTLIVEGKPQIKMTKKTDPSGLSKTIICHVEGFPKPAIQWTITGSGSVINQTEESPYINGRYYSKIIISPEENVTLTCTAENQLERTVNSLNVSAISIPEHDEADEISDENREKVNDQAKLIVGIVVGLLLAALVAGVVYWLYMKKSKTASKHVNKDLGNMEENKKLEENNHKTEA

CD44v3-10 (Homo sapiens) = CD44v3-10 (Homo sapiens) (UniProt P16070); assay: SPR
Sequence of CD44v3-10 (Homo sapiens) (P16070 21-742): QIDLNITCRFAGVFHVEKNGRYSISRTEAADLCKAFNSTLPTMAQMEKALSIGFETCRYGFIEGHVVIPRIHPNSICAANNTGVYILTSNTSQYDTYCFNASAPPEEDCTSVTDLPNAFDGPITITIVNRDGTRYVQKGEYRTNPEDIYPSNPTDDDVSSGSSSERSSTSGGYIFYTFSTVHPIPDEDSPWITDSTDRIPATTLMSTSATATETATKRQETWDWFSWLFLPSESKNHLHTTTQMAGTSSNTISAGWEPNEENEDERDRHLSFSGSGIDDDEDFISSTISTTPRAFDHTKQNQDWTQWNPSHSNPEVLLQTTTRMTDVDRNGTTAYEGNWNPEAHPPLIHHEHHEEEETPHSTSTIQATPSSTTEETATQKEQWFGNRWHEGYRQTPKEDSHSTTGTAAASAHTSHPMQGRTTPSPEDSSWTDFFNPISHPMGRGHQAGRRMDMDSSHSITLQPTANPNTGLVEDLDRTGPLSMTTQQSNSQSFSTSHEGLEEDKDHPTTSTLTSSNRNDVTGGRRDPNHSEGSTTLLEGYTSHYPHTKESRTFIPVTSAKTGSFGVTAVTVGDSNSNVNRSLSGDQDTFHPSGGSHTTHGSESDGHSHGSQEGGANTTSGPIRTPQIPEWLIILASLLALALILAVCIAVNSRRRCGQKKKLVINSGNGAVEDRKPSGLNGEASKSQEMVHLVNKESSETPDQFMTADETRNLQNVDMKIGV

CD44s (Homo sapiens) = CD44s (Homo sapiens) (UniProt P16070); assay: SPR
Sequence of CD44s (Homo sapiens) (P16070 21-742): as above

CD44vRA (Homo sapiens) = CD44vRA (Homo sapiens) (UniProt P16070); assay: SPR
Sequence of CD44vRA (Homo sapiens) (P16070 21-742): as above

Sequence of GAL-3 (P17931 2-250): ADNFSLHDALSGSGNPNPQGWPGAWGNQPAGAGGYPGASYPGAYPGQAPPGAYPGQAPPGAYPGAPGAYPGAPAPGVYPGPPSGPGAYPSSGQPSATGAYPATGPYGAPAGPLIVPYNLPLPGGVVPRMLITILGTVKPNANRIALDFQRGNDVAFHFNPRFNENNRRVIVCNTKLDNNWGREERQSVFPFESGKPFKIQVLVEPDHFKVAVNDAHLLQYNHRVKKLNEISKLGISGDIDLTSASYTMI
Sequence of GAL-8 (O00214 whole entry): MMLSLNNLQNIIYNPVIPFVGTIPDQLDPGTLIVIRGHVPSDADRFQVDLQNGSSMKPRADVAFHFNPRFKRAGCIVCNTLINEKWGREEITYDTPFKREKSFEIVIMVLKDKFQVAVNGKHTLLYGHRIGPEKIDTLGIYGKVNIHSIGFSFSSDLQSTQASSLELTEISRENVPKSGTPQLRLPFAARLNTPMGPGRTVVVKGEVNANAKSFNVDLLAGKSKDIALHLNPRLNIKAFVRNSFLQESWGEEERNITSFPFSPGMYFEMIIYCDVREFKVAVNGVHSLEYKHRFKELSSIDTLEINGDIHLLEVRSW
Sequence of GAL-4 (P56470 whole entry): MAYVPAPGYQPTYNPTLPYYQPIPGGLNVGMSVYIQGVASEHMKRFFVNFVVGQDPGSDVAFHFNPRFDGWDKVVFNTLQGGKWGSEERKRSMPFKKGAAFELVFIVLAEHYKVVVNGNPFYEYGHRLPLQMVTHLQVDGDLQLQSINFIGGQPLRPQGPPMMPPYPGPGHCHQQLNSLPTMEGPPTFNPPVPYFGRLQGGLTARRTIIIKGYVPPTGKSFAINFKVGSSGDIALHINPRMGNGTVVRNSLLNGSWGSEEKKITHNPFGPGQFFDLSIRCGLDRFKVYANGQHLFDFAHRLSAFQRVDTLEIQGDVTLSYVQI
Sequence of GAL-1 (P09382 2-135): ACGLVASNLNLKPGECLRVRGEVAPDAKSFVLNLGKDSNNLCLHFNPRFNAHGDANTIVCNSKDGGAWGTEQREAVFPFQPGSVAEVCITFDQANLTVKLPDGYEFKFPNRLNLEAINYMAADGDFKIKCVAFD

Kd (NRP1 (Homo sapiens)): 109 nM
Substance: GAL-1 (from UniProt P09382)

Kd (CD146 ECD (Homo sapiens)): 1100 nM | Kd (JAG1 (Homo sapiens)): 8910 nM | Kd (CD13 (Homo sapiens)): 349 nM | Kd (DLL4 (Homo sapiens)): 8520 nM
Substance: GAL-3 (from UniProt P17931)

Kd (CEA (Homo sapiens)): 20 nM
Substance: GAL-4 (from UniProt P56470)

Kd (ALCAM (Homo sapiens)): 3190 nM and 2000 nM | Kd (CD44v3-10 (Homo sapiens)): 27 nM | Kd (CD44s (Homo sapiens)): 10000 nM | Kd (CD44vRA (Homo sapiens)): 5.8 nM
Substance: GAL-8 (from UniProt O00214)
